According to patent US20080019909A1, “Modulation of Programmed Necrosis” (priority 2003, published 2008):

Tests used:
FADD -/- I42 cells = experiment: TNF cytotoxic assay (cell loss by PI exclusion on FACS), FADD -/- I42 cells; format: cell-based; conditions: FADD -/- cells (I42) transiently transfected; TNF 12 hours; GFP+ cells
Method: Cells were stimulated with, TNF or anti-Fas antibody (CH11) for 12 hours and cell loss was analyzed on the GFP+ cells by PI exclusion on FACS.
FIG. 8F is a bar graph depicting the results of experiments in which FADD -/- I42 cells and caspase-8 -/- J3.2 cells (both are TNFR-2+) were stimulated with TNF in the presence or absence of zVAD-fmk for 16 hours.

[1] = test system: TNFR-2+ RIP -/- Jurkat cells (R1.1); experiment: TNF cytotoxic assay (cell loss by PI exclusion on FACS), TNFR-2+ RIP -/- cells; format: cell-based; conditions: TNFR-2+ RIP -/- cells reconstituted with RIP mutants, stimulated with TNF
From the text: The results are representative of three experiments.

caspase-8 -/- J3.2 cells = experiment: TNF cytotoxic assay (cell loss by PI exclusion on FACS), caspase-8 -/- J3.2 cells; conditions: for TNF-induced programmed necrosis, transfected kinase-inactive constructs: caspase-8 -/- J3.2 cells co-transfected with pEGFP-N1, 10 ng/ml rhTNFα, 16 hours, GFP positive cells

Row | Molecule | restoration of response to TNF (TNF killing) by transfected RIP constructs [1] | other results
1 | full-length FADD: full-length FADD transiently transfected into FADD -/- cells (protein, UniProt Q13158 1-208, looked up, full-length, full-length FADD transiently transfected into FADD -/- cells) MDPFLVLLHSVSSSLSSSELTELKFLCLGRVGKRKLERVQSGLDLFSMLLEQNDLEPGHTELLRELLASLRRHDLLRRVDDFEAGAAAGAAPGEEDLCAAFNVICDNVGKDWRRLARQLKVSDTKIDSIEDRYPRNLTERVRESLRIWKNTEKENATVAHLVGALRSCQMNLVADLVQEVQQARDLQNRSGAMSPMSWNSDASTSEAS |  | TNF-induced programmed necrosis after reconstitution of FADD (FADD -/- I42 cells): suppression
2 | RIPc: C-terminal fragment of RIP (amino acids 325-671) (protein, UniProt Q13546 325-671, looked up, fragment) CVAVPSSRSNSATEQPGSLHSSQGLGMGPVEESWFAPSLEHPQEENEPSLQSKLQDEANYHLYGSRMDRQTKQQPRQNVAYNREEERRRRVSHDPFAQQRPYENFQNTEGKGTAYSSAASHGNAVHQPSGLTSQPQVLYQNNGLYSSHGFGTRPLDPGTAGPRVWYRPIPSHMPSLHNIPVPETNYLGNTPTMPFSSLPPTDESIKYTIYNSTGIQIGAYNYMEIGGTSSSLLDSTNTNFKEEPAAKYQAIFDNTTSLTDKHLDPIRENLGKHWKNCARKLGFTQSQIDEIDHDYERDGLKEKVYQMLQKWVMREGIKGATVGKLAQALHQCSRIDLLSSLIYVSQN | restored | 
3 | p35: known apoptosis inhibitor, transfected plasmid (protein, UniProt P08160 1-299, looked up) Early 35 kDa protein: MCVIFPVEIDVSQTIIRDCQVDKQTRELVYINKIMNTQLTKPVLMMFNISGPIRSVTRKNNNLRDRIKSKVDEQFDQLERDYSDQMDGFHDSIKYFKDEHYSVSCQNGSVLKSKFAKILKSHDYTDKKSIEAYEKYCLPKLVDERNDYYVAVCVLKPGFENGSNQVLSFEYNPIGNKVIVPFAHEINDTGLYEYDVVAYVDSVQFDGEQFEEFVQSLILPSSFKNSEKVLYYNEASKNKSMIYKALEFTTESSWGKSEKYNWKIFCNGFIYDKKSKVLYVKLHNVTSALNKNVILNTIK |  | TNF-induced programmed necrosis, transfected apoptosis inhibitors (caspase-8 -/- J3.2 cells; caspase 8 -/- J3.2 cells transfected with plasmids, 12 hours stimulation with TNF): failed to confer protection
4 | kinase-inactive RIP: kinase inactive version of RIP (K45A mutation), expressed from transfected plasmid (protein, UniProt Q13546 1-671, looked up, variant K45A) Receptor-interacting …: MQPDMSLNVIKMKSSDFLESAELDSGGFGKVSLCFHRTQGLMIMATVYKGPNCIEHNEALLEEAKMMNRLRHSRVVKLLGVIIEEGKYSLVMEYMEKGNLMHVLKAEMSTPLSVKGRIILEIIEGMCYLHGKGVIHKDLKPENILVDNDFHIKIADLGLASFKMWSKLNNEEHNELREVDGTAKKNGGTLYYMAPEHLNDVNAKPTEKSDVYSFAVVLWAIFANKEPYENAICEQQLIMCIKSGNRPDVDDITEYCPREIISLMKLCWEANPEARPTFPGIEEKFRPFYLSQLEESVEEDVKSLKKEYSNENAVVKRMQSLQLDCVAVPSSRSNSATEQPGSLHSSQGLGMGPVEESWFAPSLEHPQEENEPSLQSKLQDEANYHLYGSRMDRQTKQQPRQNVAYNREEERRRRVSHDPFAQQRPYENFQNTEGKGTAYSSAASHGNAVHQPSGLTSQPQVLYQNNGLYSSHGFGTRPLDPGTAGPRVWYRPIPSHMPSLHNIPVPETNYLGNTPTMPFSSLPPTDESIKYTIYNSTGIQIGAYNYMEIGGTSSSLLDSTNTNFKEEPAAKYQAIFDNTTSLTDKHLDPIRENLGKHWKNCARKLGFTQSQIDEIDHDYERDGLKEKVYQMLQKWVMREGIKGATVGKLAQALHQCSRIDLLSSLIYVSQN | restored | TNF-induced programmed necrosis, transfected kinase-inactive constructs (caspase-8 -/- J3.2 cells): strongly suppressed
5 | wild-type RIP: wild-type receptor-interacting protein expressed in RIP -/- cells (protein, UniProt Q13546 1-671, looked up) Receptor-interacting …: MQPDMSLNVIKMKSSDFLESAELDSGGFGKVSLCFHRTQGLMIMKTVYKGPNCIEHNEALLEEAKMMNRLRHSRVVKLLGVIIEEGKYSLVMEYMEKGNLMHVLKAEMSTPLSVKGRIILEIIEGMCYLHGKGVIHKDLKPENILVDNDFHIKIADLGLASFKMWSKLNNEEHNELREVDGTAKKNGGTLYYMAPEHLNDVNAKPTEKSDVYSFAVVLWAIFANKEPYENAICEQQLIMCIKSGNRPDVDDITEYCPREIISLMKLCWEANPEARPTFPGIEEKFRPFYLSQLEESVEEDVKSLKKEYSNENAVVKRMQSLQLDCVAVPSSRSNSATEQPGSLHSSQGLGMGPVEESWFAPSLEHPQEENEPSLQSKLQDEANYHLYGSRMDRQTKQQPRQNVAYNREEERRRRVSHDPFAQQRPYENFQNTEGKGTAYSSAASHGNAVHQPSGLTSQPQVLYQNNGLYSSHGFGTRPLDPGTAGPRVWYRPIPSHMPSLHNIPVPETNYLGNTPTMPFSSLPPTDESIKYTIYNSTGIQIGAYNYMEIGGTSSSLLDSTNTNFKEEPAAKYQAIFDNTTSLTDKHLDPIRENLGKHWKNCARKLGFTQSQIDEIDHDYERDGLKEKVYQMLQKWVMREGIKGATVGKLAQALHQCSRIDLLSSLIYVSQN | potently restored | 
6 | RIP-D324A: non-cleavable mutant of RIP (protein, UniProt Q13546 1-671, looked up, variant D324A) Receptor-interacting …: MQPDMSLNVIKMKSSDFLESAELDSGGFGKVSLCFHRTQGLMIMKTVYKGPNCIEHNEALLEEAKMMNRLRHSRVVKLLGVIIEEGKYSLVMEYMEKGNLMHVLKAEMSTPLSVKGRIILEIIEGMCYLHGKGVIHKDLKPENILVDNDFHIKIADLGLASFKMWSKLNNEEHNELREVDGTAKKNGGTLYYMAPEHLNDVNAKPTEKSDVYSFAVVLWAIFANKEPYENAICEQQLIMCIKSGNRPDVDDITEYCPREIISLMKLCWEANPEARPTFPGIEEKFRPFYLSQLEESVEEDVKSLKKEYSNENAVVKRMQSLQLACVAVPSSRSNSATEQPGSLHSSQGLGMGPVEESWFAPSLEHPQEENEPSLQSKLQDEANYHLYGSRMDRQTKQQPRQNVAYNREEERRRRVSHDPFAQQRPYENFQNTEGKGTAYSSAASHGNAVHQPSGLTSQPQVLYQNNGLYSSHGFGTRPLDPGTAGPRVWYRPIPSHMPSLHNIPVPETNYLGNTPTMPFSSLPPTDESIKYTIYNSTGIQIGAYNYMEIGGTSSSLLDSTNTNFKEEPAAKYQAIFDNTTSLTDKHLDPIRENLGKHWKNCARKLGFTQSQIDEIDHDYERDGLKEKVYQMLQKWVMREGIKGATVGKLAQALHQCSRIDLLSSLIYVSQN | potently restored | 
7 | kinase-inactive form of apoptosis signaling kinase ASK1: kinase inactive version of ASK1, expressed from transfected plasmid (protein, UniProt Q99683 1-1374, looked up, variant K709R) Mitogen-activated protein …: MSTEADEGITFSVPPFAPSGFCTIPEGGICRRGGAAAVGEGEEHQLPPPPPGSFWNVESAAAPGIGCPAATSSSSATRGRGSSVGGGSRRTTVAYVINEASQGQLVVAESEALQSLREACETVGATLETLHFGKLDFGETTVLDRFYNADIAVVEMSDAFRQPSLFYHLGVRESFSMANNIILYCDTNSDSLQSLKEIICQKNTMCTGNYTFVPYMITPHNKVYCCDSSFMKGLTELMQPNFELLLGPICLPLVDRFIQLLKVAQASSSQYFRESILNDIRKARNLYTGKELAAELARIRQRVDNIEVLTADIVINLLLSYRDIQDYDSIVKLVETLEKLPTFDLASHHHVKFHYAFALNRRNLPGDRAKALDIMIPMVQSEGQVASDMYCLVGRIYKDMFLDSNFTDTESRDHGASWFKKAFESEPTLQSGINYAVLLLAAGHQFESSFELRKVGVKLSSLLGKKGNLEKLQSYWEVGFFLGASVLANDHMRVIQASEKLFKLKTPAWYLKSIVETILIYKHFVKLTTEQPVAKQELVDFWMDFLVEATKTDVTVVRFPVLILEPTKIYQPSYLSINNEVEEKTISIWHVLPDDKKGIHEWNFSASSVRGVSISKFEERCCFLYVLHNSDDFQIYFCTELHCKKFFEMVNTITEEKGRSTEEGDCESDLLEYDYEYDENGDRVVLGKGTYGIVYAGRDLSNQVRIAIREIPERDSRYSQPLHEEIALHKHLKHKNIVQYLGSFSENGFIKIFMEQVPGGSLSALLRSKWGPLKDNEQTIGFYTKQILEGLKYLHDNQIVHRDIKGDNVLINTYSGVLKISDFGTSKRLAGINPCTETFTGTLQYMAPEIIDKGPRGYGKAADIWSLGCTIIEMATGKPPFYELGEPQAAMFKVGMFKVHPEIPESMSAEAKAFILKCFEPDPDKRACANDLLVDEFLKVSSKKKKTQPKLSALSAGSNEYLRSISLPVPVLVEDTSSSSEYGSVSPDTELKVDPFSFKTRAKSCGERDVKGIRTLFLGIPDENFEDHSAPPSPEEKDSGFFMLRKDSERRATLHRILTEDQDKIVRNLMESLAQGAEEPKLKWEHITTLIASLREFVRSTDRKIIATTLSKLKLELDFDSHGISQVQVVLFGFQDAVNKVLRNHNIKPHWMFALDSIIRKAVQTAITILVPELRPHFSLASESDTADQEDLDVEDDHEEQPSNQTVRRPQAVIEDAVATSGVSTLSSTVSHDSQSAHRSLNVQLGRMKIETNRLLEELVRKEKELQALLHRAIEEKDQEIKHLKLKSQPIEIPELPVFHLNSSGTNTEDSELTDWLRVNGADEDTISRFLAEDYTLLDVLYYVTRDDLKCLRLRGGMLCTLWKAIIDFRNKQT |  | TNF-induced programmed necrosis, transfected kinase-inactive constructs (caspase-8 -/- J3.2 cells): not
8 | RIPn: N-terminal cleavage product of RIP (amino acids 1-324) (protein, UniProt Q13546 1-324, looked up, fragment) MQPDMSLNVIKMKSSDFLESAELDSGGFGKVSLCFHRTQGLMIMKTVYKGPNCIEHNEALLEEAKMMNRLRHSRVVKLLGVIIEEGKYSLVMEYMEKGNLMHVLKAEMSTPLSVKGRIILEIIEGMCYLHGKGVIHKDLKPENILVDNDFHIKIADLGLASFKMWSKLNNEEHNELREVDGTAKKNGGTLYYMAPEHLNDVNAKPTEKSDVYSFAVVLWAIFANKEPYENAICEQQLIMCIKSGNRPDVDDITEYCPREIISLMKLCWEANPEARPTFPGIEEKFRPFYLSQLEESVEEDVKSLKKEYSNENAVVKRMQSLQLD | failed to restore | 
